According to patent US20260250320A1, “LIPIDATED PEPTIDE INHIBITORS OF INTERLEUKIN-23 RECEPTOR” (Janssen Pharmaceutica NV, priority 2023, published 2026):
*1 amine or outer side, *2 acyl side, *3 side chain or, on linkers, in order; H or OH if unused. Bridges are numbered along the chain shown (N, C = ends). Primed or numbered codes have the meaning given here. Side-chain parts run from the residue outwards. [ ]: non-standard residue; d: D form. TMAPF = 5-(4-(2-amino-2-carboxyethyl)phenoxy)-N,N,N-trimethylpentan-1-aminium, C[N+](C)(C)CCCCCOc1ccc(C[C@H](N[*:1])C(=O)[*:2])cc1; Trp(7-Me) = Cc1cccc2c(C[C@H](N)C(=O)O)c[nH]c12; γGlu = O=C(O)[C@H](CCC(=O)[*:2])N[*:1]; 2Nal = N[C@@H](Cc1ccc2ccccc2c1)C(=O)O; AEF = NCCOc1ccc(C[C@H](N)C(=O)O)cc1; 3Pal = N[C@@H](Cc1cccnc1)C(=O)O; NMecPEG3a = not defined here; Pen = CC(C)(S)[C@H](N)C(=O)O; PEG2″ = PEG2 spacer unit; Thp = NC1(C(=O)O)CCOCC1; Sar = CNCC(=O)O

T1: interleukin-23 receptor (IL-23R) (UniProt Q5VWK5 24-629, limits assumed)
T1 sequence (looked up): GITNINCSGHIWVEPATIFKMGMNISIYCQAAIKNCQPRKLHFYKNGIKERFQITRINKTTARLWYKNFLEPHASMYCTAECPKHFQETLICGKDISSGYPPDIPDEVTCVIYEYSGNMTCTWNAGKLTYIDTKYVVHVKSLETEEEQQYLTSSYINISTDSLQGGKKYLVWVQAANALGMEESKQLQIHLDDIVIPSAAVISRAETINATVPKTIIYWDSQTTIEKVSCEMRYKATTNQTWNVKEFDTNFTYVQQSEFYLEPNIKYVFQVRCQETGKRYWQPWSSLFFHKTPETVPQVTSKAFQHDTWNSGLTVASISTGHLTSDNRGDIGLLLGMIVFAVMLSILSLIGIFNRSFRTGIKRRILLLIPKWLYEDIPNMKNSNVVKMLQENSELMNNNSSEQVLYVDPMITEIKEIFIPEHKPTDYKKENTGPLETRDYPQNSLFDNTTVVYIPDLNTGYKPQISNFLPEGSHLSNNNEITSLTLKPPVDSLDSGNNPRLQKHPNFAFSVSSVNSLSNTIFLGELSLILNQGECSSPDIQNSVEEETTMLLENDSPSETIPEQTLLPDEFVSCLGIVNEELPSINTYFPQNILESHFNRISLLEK

B1: SEQ ID NO: 70 (peptide)
peptide: Ac-[dR][Pen]NT[Trp(7-Me)]K(NMecPEG3a)[Pen][AEF][2Nal][Thp]EN[3Pal][Sar]K([PEG2″-PEG2″-C18OH])-NH2
modifications: disulfide 2-7 (inferred); reading uncertain; also: printed as MeCO-r-Pen(3)-N-T-7MeW-K(NMecPEG3a)-Pen(3)-AEF-2Nal-THP-E-N-3Pya-Sar-K(PEG2PEG2C18OH)-CONH2

molecular target: interleukin-23 receptor (IL-23R) (UniProt Q5VWK5); experiment: cell-based or functional assay

EC90, IL23R reporter assay [ng/mL]	Molecule
10	interleukin-23 (IL-23) (from UniProt Q9NPF7 20-189; P29460 23-328) (ligand)

molecular target: T1, interleukin-23 receptor (IL-23R); experiment: cell-based or functional assay

IC50, IL23R reporter assay [nM]	Molecule
< 50	{HOC18-γGlu-PEG2″-PEG2″}-[dR][Pen]NT[Trp(7-Me)]K(Ac)[Pen][AEF][2Nal][Thp]EN[3Pal][Sar]-NH2 (disulfide 2-7) [SEQ ID NO: 60]
< 50	B1
< 50	XNTXXXXXXENXX (HOC18gEPEG2PEG2CO-Pen(3)-N-T-7MeW-K(Ac)-Pen(3)-AEF-2Nal-THP-E-N-3Pya-Sar-CONH2) [SEQ ID NO: 61]
< 50	Ac-K([PEG2″-PEG2″-γGlu-C18OH])[Pen]NT[Trp(7-Me)]K(Ac)[Pen][TMAPF][2Nal][Thp]K(Ac)N[3Pal][Sar]-NH2 (disulfide 2-7 (inferred)) [SEQ ID NO: 62]

molecular target: T1, interleukin-23 receptor (IL-23R); experiment: cell-based or functional assay; remark: another data set of the same source

PBMC pSTAT3 IC50 [nM]	Molecule
< 0.5	{HOC18-γGlu-PEG2″-PEG2″}-[dR][Pen]NT[Trp(7-Me)]K(Ac)[Pen][AEF][2Nal][Thp]EN[3Pal][Sar]-NH2 (disulfide 2-7) [SEQ ID NO: 60]
< 0.5	B1
< 0.5	XNTXXXXXXENXX (HOC18gEPEG2PEG2CO-Pen(3)-N-T-7MeW-K(Ac)-Pen(3)-AEF-2Nal-THP-E-N-3Pya-Sar-CONH2) [SEQ ID NO: 61]
< 0.5	Ac-K([PEG2″-PEG2″-γGlu-C18OH])[Pen]NT[Trp(7-Me)]K(Ac)[Pen][TMAPF][2Nal][Thp]K(Ac)N[3Pal][Sar]-NH2 (disulfide 2-7 (inferred)) [SEQ ID NO: 62]
